Laboratory results: the supplement of paper PMC10724198
± gives the standard deviation of the averaged measurements.

System: Saccharomyces cerevisiae
Assay: protein stability index of tFT-peptide fusion (C-terminal peptide) (PSI (0-1 scale)); higher = more stable (slower turnover)
Details: genetic background: wild type; temperature: 30 C
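Also: PSI is a weighted mean of sequencing reads over stability bins, variants kept only with over 10 reads, mCherry proximal and sfGFP distal, peptide attached via GGGS linker.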

Row | Sequence | protein stability index
1 | RGLDNSGVVAGG | 0.715 ± 0.025
2 | SLSSTVPRFCEV | 0.6241 ± 0.0028
3 | RRLPPSRSAPFP | 0.698 ± 0.028
4 | PVFTLLPTCYCA | 0.6073 ± 0.0025
5 | PPAPPPASPGLV | 0.7017 ± 0.0009
6 | VGGGAVRAWGLR | 0.688 ± 0.028
7 | PRVRSPLLSPPQ | 0.606 ± 0.017
8 | CGPLPLVRSLLP | 0.7031 ± 0.0023
9 | GKIGYQLGAVIN | 0.709 ± 0.068
10 | DQVGWVAGVDAR | 0.707 ± 0.048
11 | TKCSPLASRFSC | 0.707 ± 0.016
12 | DAGWTRGGEGVW | 0.739 ± 0.032
13 | GCGLVGGRWFRW | 0.67 ± 0.034
14 | FSSSMFPPPLFV | 0.662 ± 0.0056
15 | QEDNAIAVGWSA | 0.673 ± 0.008
16 | LLCLRGRVTLCP | 0.537 ± 0.031
17 | VAVDGSDQGGTR | 0.64 ± 0.079
18 | CILPVLRGMSPA | 0.616 ± 0.011
19 | GERAGGPGRGRE | 0.683 ± 0.069
20 | PLSWVLFSFFHA | 0.697 ± 0.062
21 | DYPQWWEEQHVP | 0.797 ± 0.019
22 | KKGIKEYYKVQK | 0.775 ± 0.16
23 | HDRRGLRRISAT | 0.647 ± 0.0084
24 | YWFVFGEFSGGR | 0.716 ± 0.042
25 | LLHQSRSQVSFY | 0.717 ± 0.093
26 | LFSRSSHGRFLT | 0.624 ± 0.041

Row | Sequence | protein stability index
27 | KIVCTLGPAFAR | 0.672 ± 0.051
28 | PSVPSAAPPSSA | 0.703 ± 0.02
29 | GAYKVPSYGINY | 0.695 ± 0.021
30 | SGIRGWNLGEMW | 0.7152 ± 0.0068
31 | LARLFQLLERPW | 0.688 ± 0.063
32 | SRGGSGKDTGRT | 0.657 ± 0.04
33 | TRLGWSWGFAHR | 0.719 ± 0.11
34 | GVCVLGGWSGFW | 0.758 ± 0.062
35 | PPPPHPPSPSLP | 0.664 ± 0.1
36 | LRHSCSTYRIFS | 0.683 ± 0.028
37 | SPIHSLNYASSC | 0.7217 ± 0.0015
38 | GLGVVHGYFLVE | 0.59 ± 0.025
39 | KHPMRLPHTRRA | 0.706 ± 0.045
40 | CLPLPAPLLAHL | 0.666 ± 0.16
41 | GGGGGGGGGGGG | 0.65 ± 0.04
42 | CTGVFTGRCEGG | 0.653 ± 0.028
43 | KRLCTYRMIGSL | 0.521 ± 0.0089
44 | VSGASHLCQYIK | 0.724 ± 0.072
45 | RGIFLGVCALDY | 0.696 ± 0.0085
46 | KKKLKYKGIRTN | 0.679 ± 0.049
47 | SCLSLALYASHF | 0.56 ± 0.033
48 | RTKETTTRQKKK | 0.708 ± 0.052
49 | GAVGSPVEFGGR | 0.688 ± 0.063
50 | AAQRGSTMARGG | 0.704 ± 0.064
51 | WCGKVVVGSRQG | 0.68 ± 0.032
52 | IRIDRNLNSLGK | 0.685 ± 0.017

Row | Sequence | protein stability index
53 | KKKKKKTKKKNK | 0.719 ± 0.016
54 | PRLSSPAATSPP | 0.709 ± 0.012
55 | PSHQRVRGLPSL | 0.697 ± 0.041
56 | RDGLVPFCVVII | 0.615 ± 0.048
57 | YPLRVSRCWSPP | 0.773 ± 0.1
58 | EKKKNKTKKKTN | 0.688 ± 0.056
59 | RQRWLSELSKAL | 0.712 ± 0.083
60 | RFLCPSSFIELL | 0.794 ± 0.12
61 | KLGWSVTRAEVN | 0.687 ± 0.017
62 | SCPAPAALPLPR | 0.674 ± 0.026
63 | GGGGEAWGGLRW | 0.775 ± 0.055
64 | WCLVTRGGDRDL | 0.6727 ± 0.0047
65 | PPATLIWAWFFR | 0.67 ± 0.022
66 | GGGLVGVEGGWG | 0.6732 ± 0.0057
67 | IAISAPSLLDTS | 0.643 ± 0.026
68 | GGYGRAGRDVGG | 0.655 ± 0.035
69 | PPGPPRPPPRTP | 0.689 ± 0.0036
70 | FLLPLKCRSTTN | 0.712 ± 0.046
71 | CWGGGGLWLLEV | 0.515 ± 0.012
72 | IKRYYLDSMKRK | 0.576 ± 0.0069
73 | GLLRVGGFWSCL | 0.747 ± 0.019
74 | GSGYRPRVESWI | 0.681 ± 0.0079
75 | VGEVAGRWCGRG | 0.7 ± 0.025
76 | KDNAPTLPQGGN | 0.662 ± 0.06
77 | ALVRGGYLFFPP | 0.663 ± 0.026
78 | GVEGAEFVEAGT | 0.699 ± 0.041

Row | Sequence | protein stability index
79 | PPLPPPAPSFPT | 0.684 ± 0.06
80 | AGVLTRGNCCGG | 0.6885 ± 0.005
81 | GCFYYWSVNVSY | 0.5599 ± 0.0036
82 | YRTPCPPLSPHS | 0.719 ± 0.062
83 | AQPLARTALPRR | 0.775 ± 0.019
84 | DMGGLKACRGVG | 0.5695 ± 0.0028
85 | RLPCPLRSRALS | 0.626 ± 0.03
86 | TSEIGKEINYRK | 0.66 ± 0.017
87 | LDSPGIDRRSFM | 0.737 ± 0.064
88 | RRTEGKECEGEE | 0.707 ± 0.064
89 | GKAIIIFEQLRR | 0.749 ± 0.12
90 | EFAYQSRYKVGR | 0.694 ± 0.058
91 | GRGRCRGGVAVE | 0.751 ± 0.23
92 | PPPFRFPALLPP | 0.6778 ± 0.0007
93 | FNTRDTFLYTCR | 0.789 ± 0.11
94 | PNSSLLNLPRPP | 0.744 ± 0.041
95 | WLRTGNVLQELL | 0.699 ± 0.03
96 | PRSPARPPFPTP | 0.6835 ± 0.0049
97 | RTTAPPIPLPSP | 0.729 ± 0.042
98 | SCCSLCKAVRNL | 0.718 ± 0.054
99 | PYPPRPATPRPP | 0.682 ± 0.018
100 | SVPRPLSRPPFL | 0.697 ± 0.086
101 | GGGGVGSSGARV | 0.644 ± 0.068
102 | EKQKGIVQADKI | 0.665 ± 0.046
103 | LGGGPTGARPAM | 0.782 ± 0.078
104 | NKIKKTQKKKLG | 0.766 ± 0.1

Row | Sequence | protein stability index
105 | LCHLSSFLAALS | 0.618 ± 0.012
106 | RQFRVVGCVCQP | 0.686 ± 0.037
107 | VSVSDSKMARLG | 0.676 ± 0.055
108 | RGLGLVGLGGGG | 0.727 ± 0.012
109 | YMIPVPFSNLCL | 0.66 ± 0.011
110 | VGKCGSGCLHST | 0.6313 ± 0.004
111 | ALPLRFSSPGPS | 0.659 ± 0.0068
112 | PPPPLPPRPPPP | 0.704 ± 0.026
113 | PPRPPPPPPAPL | 0.688 ± 0.019
114 | GRRPRRLNKDVQ | 0.614 ± 0.025
115 | ARGFSAGAIGVG | 0.646 ± 0.1
116 | MPPRNAENRSLP | 0.6793 ± 0.003
117 | FVGACCGGSVEG | 0.721 ± 0.036
118 | EHRPCQGVMYII | 0.522 ± 0.0026
119 | FRRWHPPFFLFP | 0.713 ± 0.04
120 | LSRMTNFKEKEG | 0.669 ± 0.03
121 | VGPRGFYSFVGG | 0.665 ± 0.014
122 | KVKGGELVRTLR | 0.736 ± 0.021
123 | ILPFSGLAFFLP | 0.677 ± 0.039
124 | FFVVAPSPSPRL | 0.761 ± 0.0073
125 | RWKLRLFLLVPT | 0.602 ± 0.044
126 | RLPVRSGAMHGC | 0.665 ± 0.011
127 | FWVESGVFFFRP | 0.667 ± 0.017
128 | FFMPRCCSLALE | 0.644 ± 0.047
129 | APPPPLLPHPTP | 0.736 ± 0.028
130 | PVVFAGLLLHGH | 0.694 ± 0.042

Row | Sequence | protein stability index
131 | KKKKKKVRYIRI | 0.671 ± 0.046
132 | HFPIPPSLFFRP | 0.631 ± 0.019
133 | FTGACRCLDGPR | 0.669 ± 0.055
134 | LLSLSGVLLVPP | 0.656 ± 0.013
135 | PVFPSFGVSEFV | 0.753 ± 0.059
136 | RPRKPGLACKHL | 0.652 ± 0.034
137 | KIGSQLAGYKIS | 0.595 ± 0.063
138 | LREENKKSETKR | 0.705 ± 0.027
139 | PSPPPAPLHSPL | 0.704 ± 0.058
140 | PPPPVPPLYLPP | 0.684 ± 0.017
141 | LLPSPLPPHPPP | 0.637 ± 0.053
142 | SPRPPLLLPVTV | 0.53 ± 0.26
143 | YVARERWEGCRI | 0.7 ± 0.0077
144 | IMGGPGLTALSR | 0.729 ± 0.061
145 | PLPYPPTSPTPR | 0.678 ± 0.0078
146 | GMDGRGWGGSVV | 0.726 ± 0.038
147 | RLLPVTISSSLS | 0.702 ± 0.031
148 | LFFLRFSHFFVG | 0.605 ± 0.014
149 | LRSLLYDKVISL | 0.676 ± 0.055
150 | FFLPTLQLTPYL | 0.795 ± 0.19
151 | VLGFGSVPAWIE | 0.776 ± 0.048
152 | GGGGGGWGGGVG | 0.665 ± 0.021
153 | VYRMYTLKRVKR | 0.686 ± 0.062
154 | PLHPSRPPPSSP | 0.708 ± 0.033
155 | DVVLVSPCGQMW | 0.725 ± 0.21
156 | AGGSGGGRDRLV | 0.694 ± 0.024

Row | Sequence | protein stability index
157 | TLFVAWTDCMSY | 0.6591 ± 0.0061
158 | PPPTAPSLSSPS | 0.688 ± 0.047
159 | PTPPTPTISPTP | 0.651 ± 0.0052
160 | IMGRRGEDGVID | 0.682 ± 0.061
161 | TPGGRTLATALR | 0.676 ± 0.018
162 | GCGGRARAGAGG | 0.697 ± 0.089
163 | PLIYFLASNSRF | 0.713 ± 0.069
164 | LETETKKPQNQK | 0.724 ± 0.11
165 | VRLIQLLFTLRT | 0.53 ± 0.062
166 | KLTVPTKTIVHT | 0.651 ± 0.03
167 | GFALSFCFCFPL | 0.558 ± 0.029
168 | LSVGPIWFSCQA | 0.605 ± 0.023
169 | LVLVEAPASRNP | 0.72449 ± 0.00013
170 | GRGSGRCVVYWG | 0.651 ± 0.069
171 | VFYVGGGSVVRG | 0.663 ± 0.011
172 | SPRLSSCPPAGF | 0.749 ± 0.017
173 | EGRSVWVVGRAV | 0.652 ± 0.045
174 | YRVFTANYEYEQ | 0.724 ± 0.023
175 | GQPYTHASSSIG | 0.685 ± 0.017
176 | GVGGGGRLMCGV | 0.667 ± 0.04
177 | KSRLYVDVLMQR | 0.659 ± 0.077
178 | RLHPPRPLTPPL | 0.683 ± 0.0087
179 | PTPPCPLVPPRP | 0.72 ± 0.074
180 | SLVLLSACRFGF | 0.654 ± 0.073
181 | KHLNFNTNKRKD | 0.651 ± 0.0093
182 | PPPSSILSPSTS | 0.659 ± 0.046

Row | Sequence | protein stability index
183 | CIGVRFVNAHEG | 0.771 ± 0.1
184 | LGLYNRFSMFGS | 0.645 ± 0.026
185 | SRHIFAPFGLFG | 0.726 ± 0.056
186 | PAVSLPPPAPAS | 0.721 ± 0.051
187 | SCYGPRAPFHSP | 0.581 ± 0.074
188 | AQAPSPGRAPSP | 0.7158 ± 0.0022
189 | CGCVSWYYGALD | 0.628 ± 0.0073
190 | GGGGGRSSPGGS | 0.678 ± 0.073
191 | SFPPFSPLYSPP | 0.717 ± 0.067
192 | DAGVDVGVGTHD | 0.605 ± 0.041
193 | LSFPAPLPLFNT | 0.767 ± 0.037
194 | SDTHYLAGELCT | 0.596 ± 0.034
195 | FNCCSYTSPASG | 0.649 ± 0.015
196 | AGSSGVRLSEFP | 0.671 ± 0.11
197 | CFRTVPPPALTR | 0.7199 ± 0.002
198 | CGTVVISGIVWR | 0.647 ± 0.04
199 | EWPVGLLREGLG | 0.6177 ± 0.0016
200 | AELSTRPPAPPL | 0.715 ± 0.096
201 | FVPSSVFLFCLG | 0.545 ± 0.023
202 | HHGCATVTSRAS | 0.654 ± 0.042
